Results on 48 sequences are retold here after the supplement of paper PMC10899765.

Holding throughout (conditions): 20 nM; 72 h
Series [1] has as its system MCF10A. The series can be described thus: percent viability (nuclei count relative to siNT); higher = more viable cells. Here is the method:
(§1)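 After 72 h, cells were fixed and stained with Hoechst and anti-fibrillarin, and nucleoli per nucleus were counted with CellProfiler. Values are plate-adjusted percent effect for the one-nucleolus and 5+ nucleoli phenotypes, normalised to siNT (0%) and to the positive controls siNOL11 or siKIF11 (100%), as the mean of biological triplicates. Percent viability is the nuclei count relative to siNT.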

Series [2] concerns MCF10A. The series can be described thus: 5+ nucleoli phenotype percent effect (relative to siNT 0% and siKIF11 100%); higher = more cells with five or more nucleoli. How it is done: as §1
The subject of series [3] is MCF10A. As to the kind of experiment: one-nucleolus phenotype percent effect (relative to siNT 0% and siNOL11 100%); higher = more cells with one nucleolus (ribosome biogenesis inhibition). Here is the method:
as §1

Turning to GGGGAGCGAGGGGCGGGGC [hsa-miR-6090], the percent viability in series [1] turned out to be 164%. The “5+ nucleoli phenotype percent effect” value in series [2] was 36.1%. For the same sequence, the “one-nucleolus phenotype percent effect” value in series [3] is -21.8%.
The like results for CUCAUUUAAGUAGUCUGAUGCC [hsa-miR-5696] were, in that order, 125%, -2.38% and -11.5%.
Turning to “AGCUUCCAUGACUCCUGAUGGA [hsa-miR-2115-5p]”, the percent viability in series [1] came to 137%. In addition, the “5+ nucleoli phenotype percent effect” value in series [2] was -3.91%. Also, the “one-nucleolus phenotype percent effect” value in series [3] was -7.01%.
For the sequence “CAUGGUUCUGUCAAGCACCGCG [hsa-miR-218-2-3p]”, the percent viability in series [1] turned out to be 68%. Further, the “5+ nucleoli phenotype percent effect” value in series [2] came to 7.58%. Further, the “one-nucleolus phenotype percent effect” value in series [3] amounted to 12.5%.
Turning to UCCCUACCCCUCCACUCCCCA [hsa-miR-3162-3p], the percent viability in series [1] is 75.9%. Besides, the “5+ nucleoli phenotype percent effect” value in series [2] amounted to 53.4%. Besides, in series [3], the “one-nucleolus phenotype percent effect” value was -5.78%.
On to “UGCUGGGGGCCACAUGAGUGUG [hsa-miR-4731-5p]”, for which the percent viability in series [1] stood at 20.7%. In addition, the “5+ nucleoli phenotype percent effect” value in series [2] was -2.14%. The “one-nucleolus phenotype percent effect” value in series [3] came to 40.3%.
Consider “UUGGGCCCAGGAGUAAACAGGAU [hsa-miR-6773-5p]”, for which the percent viability in series [1] stood at 40.3%. Besides, the “5+ nucleoli phenotype percent effect” value in series [2] is -4.65%. Moreover, the “one-nucleolus phenotype percent effect” value in series [3] was -0.04%.
Consider “GGCUCAAUCUCUGGUCCUGCAGCC [hsa-miR-7158-5p]”, for which, in series [1], the percent viability was 132%. In addition, in series [2], the “5+ nucleoli phenotype percent effect” value amounted to 25.6%. Further, the “one-nucleolus phenotype percent effect” value in series [3] was -21.5%.
Turning to GUAAGGGACCGGAGAGUAGGA [hsa-miR-6892-5p], the percent viability in series [1] amounted to 22.3%. Moreover, the “5+ nucleoli phenotype percent effect” value in series [2] was -29%. Also, the “one-nucleolus phenotype percent effect” value in series [3] is 20.5%.
For “UAGGGUACUCAGAGCAAGUUGU [hsa-miR-6841-5p]”, in series [1], the percent viability turned out to be 63.6%. Besides, in series [2], the “5+ nucleoli phenotype percent effect” value was 14.6%. Also, the “one-nucleolus phenotype percent effect” value in series [3] was -4.08%.
The corresponding values for CUGGAGUCUAGGAUUCCA [hsa-miR-4309] are 33.2%, -25.6% and 33.6%.
In the case of CUGGACUGAGCCAUGCUACUGG [hsa-miR-1269b], in series [1], the percent viability worked out at 60.9%. Besides, the “5+ nucleoli phenotype percent effect” value in series [2] worked out at 18.3%. In addition, the “one-nucleolus phenotype percent effect” value in series [3] was determined as 2.22%.
Turning to “UAAGUGCUUCCAUGUUUCAGUGG [hsa-miR-302c-3p]”, the percent viability in series [1] was determined as 78%. In series [2], the “5+ nucleoli phenotype percent effect” value is 52.1%. For the same sequence, in series [3], the “one-nucleolus phenotype percent effect” value is -16.2%.
As for AGAAGGCCUUUCCAUCUCUGU [hsa-miR-4493], the percent viability in series [1] amounted to 45.9%. Further, in series [2], the “5+ nucleoli phenotype percent effect” value was -36.6%. In series [3], the “one-nucleolus phenotype percent effect” value was found to be 41.7%.
Turning to UCGUUUGCCUUUUUCUGCUU [hsa-miR-1282], the percent viability in series [1] stood at 84.2%. In series [2], the “5+ nucleoli phenotype percent effect” value came to 5.62%. Moreover, the “one-nucleolus phenotype percent effect” value in series [3] is -8.15%.
The corresponding values for “UACCAUUAGAAGAGCUGGAAGA [hsa-miR-6512-5p]” are 78.6%, 11% and 1.01%.
Regarding “CUGCAGGCAGAAGUGGGGCUGACA [hsa-miR-6511b-5p]”, the percent viability in series [1] was found to be 27.4%. Also, the “5+ nucleoli phenotype percent effect” value in series [2] is -9.29%. In addition, the “one-nucleolus phenotype percent effect” value in series [3] is 39.6%.
The corresponding values for “UGGGUGUAGGCUGGAGCUGAGG [hsa-miR-6772-5p]” are 17%, -8.54% and 23.4%.
The corresponding values for AGAAGUAAUUGCGGUUUUGCCA [hsa-miR-548ax] are 53.4%, -15.7% and 4.38%.
The corresponding values for “GGAGGGGUCCCGCACUGGGAGG [hsa-miR-1914-3p]” are 126%, 46.6% and -23.7%.
UAGCACCAUCUGAAAUCGGUUA [hsa-miR-29a-3p]: the percent viability in series [1] is 65.1%. In series [2], the “5+ nucleoli phenotype percent effect” value was determined as 46.9%. The “one-nucleolus phenotype percent effect” value in series [3] is -24%.
The corresponding values for “GUUCCACACUGACACUGCAGAAGU [hsa-miR-3692-3p]” are 49.6%, 6.05% and -3.86%.
On to “CAGGGAGAAGGUGGAAGUGCAGA [hsa-miR-6760-5p]”, for which the percent viability in series [1] is 24.8%. Also, the “5+ nucleoli phenotype percent effect” value in series [2] was 29.9%. Also, in series [3], the “one-nucleolus phenotype percent effect” value is -0.928%.
With UAUAUAUACAGCCAUGCACUC [hsa-miR-5011-5p], the percent viability in series [1] was 74.6%. Besides, the “5+ nucleoli phenotype percent effect” value in series [2] is 39.8%. In addition, in series [3], the “one-nucleolus phenotype percent effect” value is -18.5%.
On to AAAAGUACUUGCGGAUUU [hsa-miR-548av-5p], for which the percent viability in series [1] amounted to 77.9%. Further, the “5+ nucleoli phenotype percent effect” value in series [2] was found to be 9.21%. In series [3], the “one-nucleolus phenotype percent effect” value is -23.4%.
Regarding “UCCCUUGUCUCCUUUCCCUAG [hsa-miR-6780b-3p]”, the percent viability in series [1] was determined as 68.9%. Also, the “5+ nucleoli phenotype percent effect” value in series [2] turned out to be 32.5%. Besides, in series [3], the “one-nucleolus phenotype percent effect” value was -21.9%.
AUGGGUGAUGGGUGUGGUGU [hsa-miR-4701-3p]: the percent viability in series [1] was found to be 13.3%. In addition, the “5+ nucleoli phenotype percent effect” value in series [2] was -25%. In addition, the “one-nucleolus phenotype percent effect” value in series [3] is 47.1%.
In the case of “AGGUUGUCCGUGGUGAGUUCGCA [hsa-miR-323b-5p]”, the percent viability in series [1] came to 9.9%. Besides, the “5+ nucleoli phenotype percent effect” value in series [2] is 57.7%. Besides, the “one-nucleolus phenotype percent effect” value in series [3] was -5.61%.
“AGACUGACCUUCAACCCCACAG [hsa-miR-6855-3p]”: the percent viability in series [1] amounted to 75.7%. For the same sequence, in series [2], the “5+ nucleoli phenotype percent effect” value was -20.8%. Besides, the “one-nucleolus phenotype percent effect” value in series [3] is -4.32%.
Consider “UGCAGGGGUCGGGUGGGCCAGG [hsa-miR-6722-3p]”, for which, in series [1], the percent viability came to 45.7%. The “5+ nucleoli phenotype percent effect” value in series [2] is -25.2%. Besides, the “one-nucleolus phenotype percent effect” value in series [3] is 9%.
In the case of “UCUGCCAUCCUCCCUCCCCUAC [hsa-miR-4769-3p]”, the percent viability in series [1] amounted to 87%. For the same sequence, in series [2], the “5+ nucleoli phenotype percent effect” value turned out to be 30.9%. The “one-nucleolus phenotype percent effect” value in series [3] was -18%.
On to CACAAGGUAUUGGUAUUACCU [hsa-miR-624-3p], for which, in series [1], the percent viability is 21.1%. In series [2], the “5+ nucleoli phenotype percent effect” value was -46.2%. The “one-nucleolus phenotype percent effect” value in series [3] was found to be 71%.
Turning to GUGAAAUGUUUAGGACCACUAG [hsa-miR-203a], in series [1], the percent viability was determined as 40.9%. In series [2], the “5+ nucleoli phenotype percent effect” value is 3.03%. Further, in series [3], the “one-nucleolus phenotype percent effect” value turned out to be 10.2%.
As for CCCUGGGGUUCUGAGGACAUG [hsa-miR-6852-5p], the percent viability in series [1] is 32.3%. Moreover, the “5+ nucleoli phenotype percent effect” value in series [2] is 29%. Besides, the “one-nucleolus phenotype percent effect” value in series [3] worked out at 8.28%.
For the sequence ACUGUUGCUAAUAUGCAACUCU [hsa-miR-367-5p], the percent viability in series [1] came out at 102%. Also, the “5+ nucleoli phenotype percent effect” value in series [2] was determined as 4.48%. For the same sequence, in series [3], the “one-nucleolus phenotype percent effect” value is -5.32%.
The like results for UCACGCGGAGAGAUGGCUUUG [hsa-miR-3186-3p] were, in that order, 20.7%, -13.4% and 11.3%.
Regarding CUGGGUUGGGCUGGGCUGGG [hsa-miR-4507], the percent viability in series [1] was 28.4%. The “5+ nucleoli phenotype percent effect” value in series [2] was -11.1%. Moreover, in series [3], the “one-nucleolus phenotype percent effect” value was -1.41%.
Consider “UUUUGCAAUAUGUUCCUGAAUA [hsa-miR-450b-5p]”, for which, in series [1], the percent viability turned out to be 108%. In addition, the “5+ nucleoli phenotype percent effect” value in series [2] is 14.4%. For the same sequence, in series [3], the “one-nucleolus phenotype percent effect” value was -22.9%.
As to UGAGAUGACACUGUAGCU [hsa-miR-4770], in series [1], the percent viability turned out to be 33.4%. Further, the “5+ nucleoli phenotype percent effect” value in series [2] was -3.17%. The “one-nucleolus phenotype percent effect” value in series [3] worked out at 11.7%.
For the sequence CAGUGUUCAGAGAUGGA [hsa-miR-4255], the percent viability in series [1] was found to be 148%. Also, the “5+ nucleoli phenotype percent effect” value in series [2] came out at 68.6%. Besides, the “one-nucleolus phenotype percent effect” value in series [3] was -51.8%.
Turning to UGCACGGCACUGGGGACACGU [hsa-miR-3177-3p], in series [1], the percent viability worked out at 20.3%. Besides, in series [2], the “5+ nucleoli phenotype percent effect” value is -18%. The “one-nucleolus phenotype percent effect” value in series [3] amounted to 33.1%.
As to UAGAUAAAAUAUUGGUACCUG [hsa-miR-577], in series [1], the percent viability worked out at 113%. Also, the “5+ nucleoli phenotype percent effect” value in series [2] was determined as 29.6%. Besides, in series [3], the “one-nucleolus phenotype percent effect” value is -23.7%.
For GGGCUCACAUCACCCCAU [hsa-miR-4284], the percent viability in series [1] turned out to be 40.5%. Besides, the “5+ nucleoli phenotype percent effect” value in series [2] is 8.32%. For the same sequence, in series [3], the “one-nucleolus phenotype percent effect” value is -1.42%.
With AUAAAGCUAGAUAACCGAAAGU [hsa-miR-9-3p], the percent viability in series [1] came to 44.1%. In addition, in series [2], the “5+ nucleoli phenotype percent effect” value is -46.1%. In addition, the “one-nucleolus phenotype percent effect” value in series [3] was 48.4%.
Take “AUCUAAAUGCAGCAUGCCAGUC [hsa-miR-4799-5p]”: the percent viability in series [1] amounted to 59.9%. For the same sequence, the “5+ nucleoli phenotype percent effect” value in series [2] was found to be 15%. Besides, the “one-nucleolus phenotype percent effect” value in series [3] was -0.603%.
The corresponding values for AGGCACGGUGUCAGCAGGC [hsa-miR-564] are 67.8%, -12.9% and 11.4%.
The like results for “GGUAGAUUUUCCUUCUAUGGU [hsa-miR-376a-2-5p]” were, in that order, 71.5%, 62% and -26.7%.
AAAGGUAAUUGUGGUUUCUGC [hsa-miR-548ag]: in series [1], the percent viability was determined as 75.7%. Further, in series [2], the “5+ nucleoli phenotype percent effect” value turned out to be 4.63%. Besides, the “one-nucleolus phenotype percent effect” value in series [3] is -6.82%.
